Among the data in paper PMC5121064 are 1/τ of the onset of the BRET signal after MOR activation values, retold here.

The target in the test is Sec14/PH module of NF1, NanoBRET construct. As to the kind of experiment: FRET or BRET. On the technique in general: Bioluminescence resonance energy transfer reports proximity on the nanometre scale.
Sec14/PH module of NF1, NanoBRET construct, sequence (P21359 2-2839): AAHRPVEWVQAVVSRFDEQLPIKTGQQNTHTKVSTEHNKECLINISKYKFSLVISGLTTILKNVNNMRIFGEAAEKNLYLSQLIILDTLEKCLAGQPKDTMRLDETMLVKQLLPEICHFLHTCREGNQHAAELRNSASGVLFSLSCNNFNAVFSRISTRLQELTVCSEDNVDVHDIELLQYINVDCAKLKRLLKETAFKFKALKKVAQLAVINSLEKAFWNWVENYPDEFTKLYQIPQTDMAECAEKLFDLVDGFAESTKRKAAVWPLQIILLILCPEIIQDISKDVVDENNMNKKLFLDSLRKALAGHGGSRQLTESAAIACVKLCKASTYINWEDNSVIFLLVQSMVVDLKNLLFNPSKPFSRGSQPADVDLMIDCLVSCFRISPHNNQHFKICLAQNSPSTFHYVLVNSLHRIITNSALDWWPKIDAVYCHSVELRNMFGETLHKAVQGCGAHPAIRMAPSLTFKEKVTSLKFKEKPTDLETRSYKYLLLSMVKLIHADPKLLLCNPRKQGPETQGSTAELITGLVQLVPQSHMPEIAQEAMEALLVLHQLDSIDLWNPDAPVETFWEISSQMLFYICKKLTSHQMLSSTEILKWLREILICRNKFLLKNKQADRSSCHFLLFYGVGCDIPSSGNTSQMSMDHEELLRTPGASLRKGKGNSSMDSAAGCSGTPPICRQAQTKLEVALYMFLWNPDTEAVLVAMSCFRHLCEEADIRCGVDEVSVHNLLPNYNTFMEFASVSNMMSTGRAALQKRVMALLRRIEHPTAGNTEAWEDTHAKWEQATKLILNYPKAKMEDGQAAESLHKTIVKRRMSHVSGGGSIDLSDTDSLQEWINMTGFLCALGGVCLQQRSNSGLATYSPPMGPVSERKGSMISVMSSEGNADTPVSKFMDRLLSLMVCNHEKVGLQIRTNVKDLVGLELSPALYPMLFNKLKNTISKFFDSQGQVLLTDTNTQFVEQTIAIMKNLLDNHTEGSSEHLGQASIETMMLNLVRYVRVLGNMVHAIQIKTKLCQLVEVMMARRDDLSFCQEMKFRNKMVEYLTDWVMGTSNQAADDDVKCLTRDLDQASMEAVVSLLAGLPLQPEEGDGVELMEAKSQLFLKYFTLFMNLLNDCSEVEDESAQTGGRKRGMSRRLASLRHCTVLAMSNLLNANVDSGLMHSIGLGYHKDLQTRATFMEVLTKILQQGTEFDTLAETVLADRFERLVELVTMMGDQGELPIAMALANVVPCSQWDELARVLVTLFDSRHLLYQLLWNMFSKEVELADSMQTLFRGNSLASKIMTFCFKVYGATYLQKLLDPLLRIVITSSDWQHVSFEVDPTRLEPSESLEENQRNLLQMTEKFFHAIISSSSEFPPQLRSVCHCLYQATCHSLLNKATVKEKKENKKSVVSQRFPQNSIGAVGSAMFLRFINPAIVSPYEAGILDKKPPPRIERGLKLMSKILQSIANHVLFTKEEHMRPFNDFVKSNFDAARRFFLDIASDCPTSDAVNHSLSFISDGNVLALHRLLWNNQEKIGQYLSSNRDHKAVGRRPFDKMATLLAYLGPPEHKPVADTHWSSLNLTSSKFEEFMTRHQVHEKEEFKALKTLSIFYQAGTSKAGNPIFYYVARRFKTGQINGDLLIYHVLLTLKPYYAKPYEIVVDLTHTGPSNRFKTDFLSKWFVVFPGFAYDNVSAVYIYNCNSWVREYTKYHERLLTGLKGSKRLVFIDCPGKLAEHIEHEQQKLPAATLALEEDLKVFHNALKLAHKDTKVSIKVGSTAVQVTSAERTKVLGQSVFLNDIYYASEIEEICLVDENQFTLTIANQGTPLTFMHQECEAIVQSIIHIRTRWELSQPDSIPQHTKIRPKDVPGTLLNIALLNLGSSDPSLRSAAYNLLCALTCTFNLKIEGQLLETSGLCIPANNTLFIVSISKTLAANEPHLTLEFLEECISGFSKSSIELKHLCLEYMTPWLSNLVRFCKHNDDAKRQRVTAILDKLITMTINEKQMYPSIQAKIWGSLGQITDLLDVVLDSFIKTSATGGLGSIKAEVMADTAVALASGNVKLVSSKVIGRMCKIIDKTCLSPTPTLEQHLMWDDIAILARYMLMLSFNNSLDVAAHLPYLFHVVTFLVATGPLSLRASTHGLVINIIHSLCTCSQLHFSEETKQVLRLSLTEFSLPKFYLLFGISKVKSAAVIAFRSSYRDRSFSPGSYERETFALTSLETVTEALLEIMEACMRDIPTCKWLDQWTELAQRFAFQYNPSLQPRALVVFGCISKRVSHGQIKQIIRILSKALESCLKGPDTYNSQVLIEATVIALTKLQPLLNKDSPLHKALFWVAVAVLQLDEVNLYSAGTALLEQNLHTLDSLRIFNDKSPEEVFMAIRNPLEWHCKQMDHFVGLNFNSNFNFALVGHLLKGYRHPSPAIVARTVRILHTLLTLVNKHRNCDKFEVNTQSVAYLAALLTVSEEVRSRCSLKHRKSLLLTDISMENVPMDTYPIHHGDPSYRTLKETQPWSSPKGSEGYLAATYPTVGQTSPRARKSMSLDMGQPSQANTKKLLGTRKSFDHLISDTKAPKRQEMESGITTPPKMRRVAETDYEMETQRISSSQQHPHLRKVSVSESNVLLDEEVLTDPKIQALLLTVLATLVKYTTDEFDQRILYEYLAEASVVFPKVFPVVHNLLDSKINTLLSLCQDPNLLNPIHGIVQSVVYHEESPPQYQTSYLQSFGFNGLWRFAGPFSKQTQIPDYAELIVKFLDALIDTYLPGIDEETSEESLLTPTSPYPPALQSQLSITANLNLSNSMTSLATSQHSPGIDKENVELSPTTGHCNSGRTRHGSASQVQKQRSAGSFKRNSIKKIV

Regarding “Gβγ, NanoBRET construct (from UniProt P62873 1-340; P59768 1-71) (complex)”, the 1/τ of the onset of the BRET signal after MOR activation worked out at 0.67 s⁻¹.
